Assay [1] deals with His-tagged human V158 FcγRIIIa (immobilized on SPR chip) (human) (UniProt P08637). As to the kind of experiment: SPR, His-tagged V158 FcγRIIIa immobilized.
In assay [2] the target is extracellular region of human F158 FcγRIIIa (human) (UniProt P08637). As to the kind of experiment: SPR. Background: SPR reads the build-up and loss of mass on a sensor chip optically.
Assay [3] deals with extracellular region of human V158 FcγRIIIa fused with GST (human) (UniProt P08637). The experiment in a line: AlphaScreen competition. In general terms: Alpha assays give light when donor and acceptor beads are brought close together.
Sequence of extracellular region of human V158 FcγRIIIa fused with GST (human) (P08637 17-208 F176V): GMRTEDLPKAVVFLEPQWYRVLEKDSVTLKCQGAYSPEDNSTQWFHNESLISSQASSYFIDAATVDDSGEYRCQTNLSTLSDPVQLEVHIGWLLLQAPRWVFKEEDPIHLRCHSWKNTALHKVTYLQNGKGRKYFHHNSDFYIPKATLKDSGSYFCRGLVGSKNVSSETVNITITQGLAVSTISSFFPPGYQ
The target of assay [4] is human FcγRIIIa on human PBMC effector cells (human) (UniProt P08637). As to the kind of experiment: cell-based or functional assay.
Assay [5] deals with extracellular region of human FcγRIIb (human) (UniProt P31994). The experiment in a line: AlphaScreen competition.
Sequence of extracellular region of human FcγRIIb (human) (P31994 43-217): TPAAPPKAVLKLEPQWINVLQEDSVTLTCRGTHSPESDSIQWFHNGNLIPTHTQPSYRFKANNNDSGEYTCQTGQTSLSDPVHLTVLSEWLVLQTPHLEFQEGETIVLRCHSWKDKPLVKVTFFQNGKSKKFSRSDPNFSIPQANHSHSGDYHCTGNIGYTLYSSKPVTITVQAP
Assay [6] shares this target. As to the kind of experiment: AlphaScreen competition, trastuzumab context.
In assay [7] the target is extracellular region of human F158 FcγRIIIa (human) (UniProt P08637). As to the kind of experiment: AlphaScreen competition.

Sequence of His-tagged human V158 FcγRIIIa (immobilized on SPR chip) (human) (P08637 17-208 F176V limits assumed): as the sequence (P08637 17-208 F176V) above
Sequence of extracellular region of human F158 FcγRIIIa (human) (P08637 17-208): as the sequence (P08637 17-208 F176V) above, with V160F counted along it

The Kd is the constant that tells how readily two partners part at equilibrium. High values mean a looser complex, low ones a tighter complex. As to alemtuzumab Fc variant I332E (antibody), the values for the Kd in assay [1] and in assay [2] were 31 nM and 72 nM, respectively.

For the substance “trastuzumab Fc variant V240I/V266I (antibody)”, the FcγRIIIa Fold in assay [3] is 1.72 fold vs WT.

Substance trastuzumab Fc variant Y278E (antibody) yielded a FcγRIIIa Fold in assay [3] of 0.9 fold vs WT.

As for trastuzumab Fc variant E283R (antibody), the FcγRIIIa Fold in assay [3] was 0.67 fold vs WT.

In assay [3], trastuzumab Fc variant V302I (antibody) registered a FcγRIIIa Fold of 1.01 fold vs WT.

In assay [4], “wild type alemtuzumab (Campath), IgG1, expressed in 293T cells (antibody)” returned an ADCC EC50 (ng/ml), DoHH-2 targets, PBMCs heterozygous V158/F158 FcγRIIIa of 9.9 ng/mL. Further, the Kd in assay [1] was 68 nM; in assay [2], 730 nM.

In assay [5], “trastuzumab Fc variant S239N/S298A/I332E (antibody)” gave a FcγRIIb Fold of 5.15 fold vs WT. Besides, the FcγRIIIa Fold in assay [3] is 32.1 fold vs WT.

In turn, “trastuzumab Fc variant S239N/A330Y/I332E (antibody)” displayed a FcγRIIIa Fold in assay [3] of 14.2 fold vs WT.

Regarding “trastuzumab Fc variant S239D/A330Y/I332E/V240I (antibody)”, the FcγRIIIa Fold in assay [3] is 28 fold vs WT.

For “trastuzumab Fc variant S239D/A330Y/I332E/L234I (antibody)”, in assay [3], the FcγRIIIa Fold was found to be 22.4 fold vs WT.

In the case of trastuzumab Fc variant E318R (antibody), the FcγRIIIa Fold in assay [3] was 1.06 fold vs WT.

Take trastuzumab Fc variant N276R (antibody): the FcγRIIIa Fold in assay [3] is 0.66 fold vs WT.

For “trastuzumab Fc variant S239N/A330L/I332E (antibody)”, the FcγRIIIa Fold in assay [3] was 12.9 fold vs WT.

On to trastuzumab Fc variant V273I (antibody), for which the FcγRIIIa Fold in assay [3] worked out at 0.79 fold vs WT.

The substance trastuzumab Fc variant K326I (antibody) returned a FcγRIIIa Fold in assay [3] of 1.43 fold vs WT.

On to alemtuzumab Fc variant W313F (antibody), for which the FcγRIIIa Fold in assay [3] is 0.88 fold vs WT.

The substance trastuzumab Fc variant Y278W (antibody) registered a FcγRIIIa Fold in assay [3] of 0.41 fold vs WT.

With “trastuzumab Fc variant L234I/L235D (antibody)”, the FcγRIIIa Fold in assay [3] is 0.07 fold vs WT.

The substance trastuzumab Fc variant S324I (antibody) yielded a FcγRIIIa Fold in assay [3] of 1.15 fold vs WT.

With trastuzumab Fc variant K274L (antibody), the FcγRIIIa Fold in assay [3] is 1.09 fold vs WT.

Regarding “trastuzumab Fc variant S239D/I332E/A330I (antibody)”, the FcγRIIIa Fold in assay [3] turned out to be 59.1 fold vs WT.

Substance trastuzumab Fc variant E333T (antibody) registered a FcγRIIIa Fold in assay [3] of 0.78 fold vs WT.

Regarding trastuzumab Fc variant E272Y (antibody), the FcγRIIIa Fold in assay [3] turned out to be 8.7 fold vs WT.

In assay [3], “trastuzumab Fc variant S239D/A330Y/I332E/L235D (antibody)” registered a FcγRIIIa Fold of 7.04 fold vs WT.

In turn, trastuzumab Fc variant Y278T (antibody) gave a FcγRIIIa Fold in assay [3] of 1.87 fold vs WT.

For trastuzumab Fc variant K274T (antibody), the FcγRIIIa Fold in assay [3] was 1.41 fold vs WT.

Turning to trastuzumab Fc variant N276E (antibody), the FcγRIIIa Fold in assay [3] came to 0.87 fold vs WT.

Take “trastuzumab Fc variant S239D/A330Y/I332E/K326E (antibody)”: the FcγRIIIa Fold in assay [3] is 64.1 fold vs WT.

In turn, trastuzumab Fc variant T335Y (antibody) had a FcγRIIIa Fold in assay [3] of 1.56 fold vs WT.

As to “trastuzumab Fc variant S239D/A330Y/I332E/V264T (antibody)”, the FcγRIIIa Fold in assay [3] amounted to 17.7 fold vs WT.

Substance “trastuzumab Fc variant S239D/V264I/I332E (antibody)” had a FcγRIIb Fold in assay [5] of 14.4 fold vs WT. The same substance came in with a FcγRIIIa Fold in assay [3] of 36.6 fold vs WT.

trastuzumab Fc variant E233D (antibody) displayed a FcγRIIIa Fold in assay [3] of 0.85 fold vs WT.

trastuzumab Fc variant K274R (antibody) displayed a FcγRIIIa Fold in assay [3] of 1.41 fold vs WT.

Consider alemtuzumab Fc variant V264I (antibody), for which the results for the Kd in assay [1] and in assay [2] were 64 nM and 550 nM, respectively.

On to trastuzumab Fc variant E333H (antibody), for which, in assay [3], the FcγRIIIa Fold was 0.75 fold vs WT.

In the case of trastuzumab Fc variant V323I (antibody), in assay [3], the FcγRIIIa Fold stood at 0.83 fold vs WT.

As for trastuzumab Fc variant F275W (antibody), in assay [3], the FcγRIIIa Fold turned out to be 1.11 fold vs WT.

For “trastuzumab Fc variant P230A/E233D (antibody)”, the FcγRIIIa Fold in assay [3] is 0.92 fold vs WT.

Turning to “alemtuzumab Fc variant S298A/E333A/K334A (antibody)”, the Kd in assay [1] amounted to 39 nM; in assay [2] it was 156 nM.

Regarding alemtuzumab Fc variant S298A (antibody), the Kd came out at 52 nM in assay [1] and 285 nM in assay [2].

Substance “trastuzumab Fc variant P230A/E233D/I332E (antibody)” showed a FcγRIIIa Fold in assay [3] of 1.87 fold vs WT.

In assay [6], “trastuzumab Fc variant S239D/I332E (antibody)” came in with a FcγRIIb Fold of 19.7 fold vs WT.

As for trastuzumab Fc variant S324Y (antibody), the FcγRIIIa Fold in assay [3] amounted to 0.98 fold vs WT.

As for trastuzumab Fc variant N276S (antibody), the FcγRIIIa Fold in assay [3] came out at 0.41 fold vs WT.

Turning to trastuzumab Fc variant T335D (antibody), the FcγRIIIa Fold in assay [3] is 2.79 fold vs WT.

trastuzumab Fc variant K274Y (antibody) displayed a FcγRIIIa Fold in assay [3] of 1.06 fold vs WT.

“trastuzumab Fc variant V264I/S298A/I332E (antibody)” returned a FcγRIIIa Fold in assay [3] of 16.5 fold vs WT.

In assay [3], trastuzumab Fc variant T335R (antibody) displayed a FcγRIIIa Fold of 2.58 fold vs WT.

Turning to trastuzumab Fc variant K274E (antibody), the FcγRIIIa Fold in assay [3] is 6.11 fold vs WT.

Turning to trastuzumab Fc variant S324V (antibody), the FcγRIIIa Fold in assay [3] came to 117 fold vs WT.

Regarding trastuzumab Fc variant N276Y (antibody), the FcγRIIIa Fold in assay [3] was found to be 0.56 fold vs WT.

For orientation: IC50 means the concentration that gives 50% inhibition. As to “alemtuzumab Fc variant V264I/I332E (antibody)”, in assay [4], the ADCC EC50 (ng/ml), DoHH-2 targets, PBMCs heterozygous V158/F158 FcγRIIIa amounted to 4 ng/mL and the ADCC Fold Improvement Over WT amounted to 2.5 fold. In assay [3], this substance came in with a FcγRIIIa Fold of 12.5 fold vs WT, a Fold of 12.8 fold vs WT and an IC50 of 0.5 nM. In assay [7], this substance registered a Fold of 15.6 fold vs WT and an IC50 of 1.1 nM. In addition, in assay [1], the Fold was determined as 4 fold vs WT and the Kd is 17 nM. In assay [2], the Fold was 14 fold vs WT and the Kd turned out to be 52 nM.

For trastuzumab Fc variant S324R (antibody), in assay [3], the FcγRIIIa Fold is 0.71 fold vs WT.

Turning to trastuzumab Fc variant S239D (antibody), the FcγRIIb Fold in assay [6] was 4.47 fold vs WT.

As for trastuzumab Fc variant P230A (antibody), the FcγRIIIa Fold in assay [3] is 1.09 fold vs WT.

In assay [4], “alemtuzumab Fc variant S239D/I332E (antibody)” returned an ADCC EC50 (ng/ml), DoHH-2 targets, PBMCs heterozygous V158/F158 FcγRIIIa of 3 ng/mL and an ADCC Fold Improvement Over WT of 3.3 fold. Besides, the FcγRIIIa Fold in assay [3] turned out to be 56.1 fold vs WT.

Substance trastuzumab Fc variant K326T (antibody) registered a FcγRIIIa Fold in assay [3] of 1.88 fold vs WT.

These data come from patent publication US20070219133A1.
